Laboratory results reported in patent US20240124528A1 (ACADEMIA SINICA, published 2024).

T1: ACT1, endogenous (human, UniProt O43734 1-574, limits assumed)
T1 sequence (looked up): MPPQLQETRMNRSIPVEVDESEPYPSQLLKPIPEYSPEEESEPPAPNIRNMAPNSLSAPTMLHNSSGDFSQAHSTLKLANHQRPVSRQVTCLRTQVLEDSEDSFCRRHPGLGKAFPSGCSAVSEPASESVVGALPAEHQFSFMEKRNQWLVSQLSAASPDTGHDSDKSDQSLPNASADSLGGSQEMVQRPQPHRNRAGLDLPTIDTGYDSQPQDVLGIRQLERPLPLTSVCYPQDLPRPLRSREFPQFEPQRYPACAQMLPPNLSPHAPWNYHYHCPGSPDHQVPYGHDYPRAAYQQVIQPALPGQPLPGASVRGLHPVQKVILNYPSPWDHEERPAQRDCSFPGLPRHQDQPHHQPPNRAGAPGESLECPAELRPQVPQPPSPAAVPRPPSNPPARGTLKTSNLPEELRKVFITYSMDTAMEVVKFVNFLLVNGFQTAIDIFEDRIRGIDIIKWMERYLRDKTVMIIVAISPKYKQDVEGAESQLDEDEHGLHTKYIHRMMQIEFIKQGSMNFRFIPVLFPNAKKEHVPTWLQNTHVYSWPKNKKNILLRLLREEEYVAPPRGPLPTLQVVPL

T2: TRAF6, endogenous (human, UniProt Q9Y4K3 1-522)
T2 sequence (looked up): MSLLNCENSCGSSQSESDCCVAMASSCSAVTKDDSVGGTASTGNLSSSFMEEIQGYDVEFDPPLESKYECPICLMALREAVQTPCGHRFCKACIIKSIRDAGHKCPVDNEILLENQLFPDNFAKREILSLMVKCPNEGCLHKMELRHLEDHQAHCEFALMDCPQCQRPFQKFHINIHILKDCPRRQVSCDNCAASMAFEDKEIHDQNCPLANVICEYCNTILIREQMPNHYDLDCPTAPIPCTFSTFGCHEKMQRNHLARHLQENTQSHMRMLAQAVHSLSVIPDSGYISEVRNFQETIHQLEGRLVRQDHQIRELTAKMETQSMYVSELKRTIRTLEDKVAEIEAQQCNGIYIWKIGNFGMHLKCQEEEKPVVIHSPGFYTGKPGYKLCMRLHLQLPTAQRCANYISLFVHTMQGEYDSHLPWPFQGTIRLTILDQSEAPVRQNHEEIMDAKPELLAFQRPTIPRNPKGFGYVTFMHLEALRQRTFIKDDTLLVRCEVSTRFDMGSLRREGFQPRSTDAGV

T3: TAK1, endogenous (human, UniProt O43318 1-606, limits assumed)
T3 sequence (looked up): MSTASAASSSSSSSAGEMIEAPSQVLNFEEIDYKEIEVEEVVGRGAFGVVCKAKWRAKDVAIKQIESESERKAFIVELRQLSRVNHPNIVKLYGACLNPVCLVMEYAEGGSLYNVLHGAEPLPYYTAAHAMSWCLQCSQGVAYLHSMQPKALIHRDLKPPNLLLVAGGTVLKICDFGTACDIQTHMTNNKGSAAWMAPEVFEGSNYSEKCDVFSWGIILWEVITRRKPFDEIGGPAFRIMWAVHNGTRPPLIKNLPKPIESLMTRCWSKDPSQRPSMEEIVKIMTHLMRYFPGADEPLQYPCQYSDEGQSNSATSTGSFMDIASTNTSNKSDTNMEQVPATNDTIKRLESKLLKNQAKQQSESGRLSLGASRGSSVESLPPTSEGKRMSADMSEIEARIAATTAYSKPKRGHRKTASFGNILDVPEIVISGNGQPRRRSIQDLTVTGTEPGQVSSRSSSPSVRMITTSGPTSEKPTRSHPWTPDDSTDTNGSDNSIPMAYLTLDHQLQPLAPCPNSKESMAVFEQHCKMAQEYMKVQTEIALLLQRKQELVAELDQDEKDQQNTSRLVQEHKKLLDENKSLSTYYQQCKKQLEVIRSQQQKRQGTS

T4: IL-17RB-HA (C-terminally HA-tagged full-length IL-17RB, wild type) (human, UniProt Q9NRM6 18-502)
T4 construct: Full-length IL-17RB subcloned into pcDNA3.1, expressed in 293T, IL-17RB-KO BxPC3 or SU.86.86 cells; also called HA-IL-17RB; HA-tagged WT IL-17RB; not shown: HA tag, C-terminal
T4 sequence: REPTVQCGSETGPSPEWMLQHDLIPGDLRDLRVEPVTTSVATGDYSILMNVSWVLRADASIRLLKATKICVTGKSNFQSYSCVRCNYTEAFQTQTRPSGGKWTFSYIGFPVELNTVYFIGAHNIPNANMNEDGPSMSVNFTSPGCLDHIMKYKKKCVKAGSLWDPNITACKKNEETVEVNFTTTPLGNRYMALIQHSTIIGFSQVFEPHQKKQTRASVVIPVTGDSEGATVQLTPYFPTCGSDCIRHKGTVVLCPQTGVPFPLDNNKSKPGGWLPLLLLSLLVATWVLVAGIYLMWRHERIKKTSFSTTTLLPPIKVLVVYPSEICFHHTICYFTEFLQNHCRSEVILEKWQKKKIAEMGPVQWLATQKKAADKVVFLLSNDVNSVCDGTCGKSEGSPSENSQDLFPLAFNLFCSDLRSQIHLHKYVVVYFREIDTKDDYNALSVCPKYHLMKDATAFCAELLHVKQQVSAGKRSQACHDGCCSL


Experiments:
ACT1, endogenous = target: T1, ACT1, endogenous; test: co-IP with anti-Flag agarose, IL-17RB-KO BxPC3 cells, rIL-17B (FIG. 6G)
TRAF6, endogenous = target: T2, TRAF6, endogenous; test: as above
TAK1, endogenous = target: T3, TAK1, endogenous; test: as above
[1] = target: T4, IL-17RB-HA (C-terminally HA-tagged …); test: co-IP with anti-HA beads, IL-17RB-KO BxPC3 cells, 50 ng/ml rIL-17B (FIG. 14B)
Procedure: For reciprocal co-IP, the whole-cell extract was incubated with anti-Flag M2 agarose (A2220, Sigma-Aldrich) or anti-HA (HA-7) agarose (A2095, Sigma-Aldrich) at 4° C. for 2 hrs with gentle agitation. […] Bradford assay (Bio-Rad) was used for determining protein concentration.

Flag-MLK4 = target: T5, Flag-MLK4 (human, UniProt Q5TCX8 1-1036, limits assumed); test: reciprocal co-IP, 293T cells, rIL-17B (FIG. 5C)
T5 construct: also called Flag-tagged WT MLK4; not shown: Flag tag

[2] = target: T6, mixed-lineage kinase 4 (MLK4), endogenous (human, UniProt Q5TCX8 1-1036, limits assumed); test: co-IP with anti-HA beads, blot with anti-MLK4, rIL-17B (FIG. 5D)
T6 construct: also called KIAA1804; MAP3K21
T6 sequence (Q5TCX8 whole entry): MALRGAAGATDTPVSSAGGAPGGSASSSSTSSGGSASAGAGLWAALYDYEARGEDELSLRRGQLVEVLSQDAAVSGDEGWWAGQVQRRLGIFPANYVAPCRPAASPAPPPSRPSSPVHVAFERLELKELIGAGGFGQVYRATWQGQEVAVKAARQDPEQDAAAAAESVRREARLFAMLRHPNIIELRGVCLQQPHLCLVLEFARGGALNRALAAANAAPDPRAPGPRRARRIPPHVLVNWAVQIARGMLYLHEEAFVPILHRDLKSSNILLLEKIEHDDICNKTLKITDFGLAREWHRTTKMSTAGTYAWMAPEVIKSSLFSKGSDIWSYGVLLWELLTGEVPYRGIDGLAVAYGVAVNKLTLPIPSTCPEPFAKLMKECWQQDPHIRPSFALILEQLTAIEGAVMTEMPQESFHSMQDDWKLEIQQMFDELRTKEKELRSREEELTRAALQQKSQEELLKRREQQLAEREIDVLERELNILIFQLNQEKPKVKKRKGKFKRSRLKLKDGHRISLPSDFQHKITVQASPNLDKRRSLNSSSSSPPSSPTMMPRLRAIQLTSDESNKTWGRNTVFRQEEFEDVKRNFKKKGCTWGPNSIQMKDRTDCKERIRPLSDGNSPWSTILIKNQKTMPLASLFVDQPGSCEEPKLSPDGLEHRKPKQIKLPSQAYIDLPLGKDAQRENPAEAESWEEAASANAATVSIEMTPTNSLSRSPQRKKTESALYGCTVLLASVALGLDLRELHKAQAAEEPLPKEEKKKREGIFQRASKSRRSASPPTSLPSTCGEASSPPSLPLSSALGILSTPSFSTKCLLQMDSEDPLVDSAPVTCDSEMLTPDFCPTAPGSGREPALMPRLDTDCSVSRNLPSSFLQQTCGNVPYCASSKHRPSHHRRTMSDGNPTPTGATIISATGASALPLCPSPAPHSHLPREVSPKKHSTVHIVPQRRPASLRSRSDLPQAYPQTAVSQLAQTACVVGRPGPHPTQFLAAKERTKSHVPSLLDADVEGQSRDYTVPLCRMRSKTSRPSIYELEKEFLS

T5 sequence (Q5TCX8 whole entry): as above

Row | Binder | binding result (ACT1, endogenous) | binding result (TRAF6, endogenous) | binding result (TAK1, endogenous) | binding result [1] | binding result (Flag-MLK4) | binding result [2]
1 | IL-17RB K470R, Flag-tagged (receptor, also called K470R-mutant IL-17RB; not shown: Flag tag) REPTVQCGSETGPSPEWMLQHDLIPGDLRDLRVEPVTTSVATGDYSILMNVSWVLRADASIRLLKATKICVTGKSNFQSYSCVRCNYTEAFQTQTRPSGGKWTFSYIGFPVELNTVYFIGAHNIPNANMNEDGPSMSVNFTSPGCLDHIMKYKKKCVKAGSLWDPNITACKKNEETVEVNFTTTPLGNRYMALIQHSTIIGFSQVFEPHQKKQTRASVVIPVTGDSEGATVQLTPYFPTCGSDCIRHKGTVVLCPQTGVPFPLDNNKSKPGGWLPLLLLSLLVATWVLVAGIYLMWRHERIKKTSFSTTTLLPPIKVLVVYPSEICFHHTICYFTEFLQNHCRSEVILEKWQKKKIAEMGPVQWLATQKKAADKVVFLLSNDVNSVCDGTCGKSEGSPSENSQDLFPLAFNLFCSDLRSQIHLHKYVVVYFREIDTKDDYNALSVCPKYHLMRDATAFCAELLHVKQQVSAGKRSQACHDGCCSL | no binding | no binding | no binding | binds |  | 
2 | IL-17RB ΔV403˜S416 (Del-3), HA-tagged (receptor, Deletion of the flexible loop; also called Del-3 mutant; not shown: HA tag) REPTVQCGSETGPSPEWMLQHDLIPGDLRDLRVEPVTTSVATGDYSILMNVSWVLRADASIRLLKATKICVTGKSNFQSYSCVRCNYTEAFQTQTRPSGGKWTFSYIGFPVELNTVYFIGAHNIPNANMNEDGPSMSVNFTSPGCLDHIMKYKKKCVKAGSLWDPNITACKKNEETVEVNFTTTPLGNRYMALIQHSTIIGFSQVFEPHQKKQTRASVVIPVTGDSEGATVQLTPYFPTCGSDCIRHKGTVVLCPQTGVPFPLDNNKSKPGGWLPLLLLSLLVATWVLVAGIYLMWRHERIKKTSFSTTTLLPPIKVLVVYPSEICFHHTICYFTEFLQNHCRSEVILEKWQKKKIAEMGPVQWLATQKKAADKVVFLLSNDVNSENSQDLFPLAFNLFCSDLRSQIHLHKYVVVYFREIDTKDDYNALSVCPKYHLMKDATAFCAELLHVKQQVSAGKRSQACHDGCCSL |  |  |  |  | no binding | no binding
